# In PMC12021056, “MISP Suppresses Ferroptosis via MST1/2 Kinases to Facilitate YAP Activation in Non‐Small Cell Lung Cancer” (Advanced Science, 2025):
# T1: His-MST2 (aa279-491) (UniProt Q13188 279-491)
# T1 construct: MST2 kinase, amino acids 279-491 (holds the C-terminal SARAH domain); also called SARAH domain of MST2; source: E. coli BL21, purified (Ni-NTA agarose)
# T1 sequence (looked up): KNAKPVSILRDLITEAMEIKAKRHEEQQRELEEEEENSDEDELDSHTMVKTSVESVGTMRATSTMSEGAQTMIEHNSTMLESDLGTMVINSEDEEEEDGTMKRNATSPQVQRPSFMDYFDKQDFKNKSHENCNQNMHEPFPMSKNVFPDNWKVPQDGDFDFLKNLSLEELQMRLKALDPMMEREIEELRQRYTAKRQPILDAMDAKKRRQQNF
# T2: His-MST1 (aa301-487) (UniProt Q13043 301-487)
# T2 construct: MST1 kinase, amino acids 301-487 (holds the C-terminal SARAH domain, aa431-487); also called SARAH domain of MST1; source: E. coli BL21, purified (Ni-NTA agarose)
# T2 sequence (looked up): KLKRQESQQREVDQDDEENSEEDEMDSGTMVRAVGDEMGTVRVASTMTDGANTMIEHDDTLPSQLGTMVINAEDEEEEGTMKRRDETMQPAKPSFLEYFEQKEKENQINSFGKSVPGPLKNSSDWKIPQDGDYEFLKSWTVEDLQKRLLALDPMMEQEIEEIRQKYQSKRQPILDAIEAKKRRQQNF
# B1: GST-MISP (aa352-524) (domain or fragment, UniProt Q8IVT2 352-524, looked up)
# chain: QRDIVQETQREEDHRREGLHVGRASTPDWVSEGPQPGLRRALSSDSILSPAPDARAADPAPEVRKVNRIPPDAYQPYLSPGTPQLEFSAFGAFGKPSSLSTAEAKAATSPKATMSPRHLSESSGKPLSTKQEASKPPRGCPQANRGVVRWEYFRLRPLRFRAPDEPQQAQVPH
# notes: source: E. coli BL21, purified (glutathione S-transferase agarose)
# Tests used:
# [1] = molecular target: T1, His-MST2 (aa279-491); test: pull-down; 2 µg GST or GST-MISP (aa352-524) incubated with 2 µg His-MST1 (aa301-487) or His-MST2 (aa279-491) for 12 h at 4 °C; SDS-PAGE and Coomassie blue staining; conditions: both partners purified
# [2] = molecular target: T2, His-MST1 (aa301-487); test: as above; conditions: both partners purified
binder,measurement,setting,value
B1,binding result,[1],binds
same,binding result,[2],binds
